Experimental data taken from the supplement of paper PMC10567573.

B1: FBXO3 (parent)
chain: AGGFQQRQGLKYCLPLTFCIHTGL
B2: RAB11A (parent)
chain: AVPTDEARAFAEKNGLSFIETSAL

Variants of: B1
Assay: protein stability index of a GFP-peptide fusion (GPS, HEK-293T) (PSI 1-6); higher = more stable
Conditions: c terminus: a fixed tail appended
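Further: lentivirally expressed fusions sorted by FACS into six bins by GFP to DsRed ratio, PSI derived from sequencing read proportions per bin multiplied by bin number.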

Row | Variant | protein stability index
1 | AGGFQQRQGLKYCLPLTFCIHTGW [L24W] | 2.7
2 | AGGFQQRQGLKYCLPLTFCIHTGG [L24G] | 2.74
3 | ATGFQQRQGLKYCLPLTFCIHTGL [G2T] | 1.88
4 | APGFQQRQGLKYCLPLTFCIHTGL [G2P] | 2.79
5 | ACGFQQRQGLKYCLPLTFCIHTGL [G2C] | 2.6
6 | ALGFQQRQGLKYCLPLTFCIHTGL [G2L] | 2.79
7 | AGGFQQRQGLKYCLPLTFHIHTGL [C19H] | 2.66
8 | AGGFQQRQGLKYCLPLTFQIHTGL [C19Q] | 1.74
9 | AGGFQQRQGLKYCLPLTFIIHTGL [C19I] | 1.6
10 | AGGFQQRQGLKYCLPLTFGIHTGL [C19G] | 1.97
11 | AGGFQQRQGLKYCLPLTFRIHTGL [C19R] | 2.8
12 | AGGFQQRQGLKYCLPLTFCIHMGL [T22M] | 2.18
13 | AGGFQQRQGLKYCLPLTFCIHAGL [T22A] | 1.86
14 | AGGFQQRQGLKYCLPLTFCIHWGL [T22W] | 2.86
15 | AGGFQQRQGLKYCLPLTFCIHNGL [T22N] | 3.55
16 | AGGFQQRQGLKYCLPLTFCIHPGL [T22P] | 3.88
17 | AGGFQQRQGLKGCLPLTFCIHTGL [Y12G] | 3.3
18 | AGGFQQRQGLKPCLPLTFCIHTGL [Y12P] | 1.68
19 | AGGFQQRQGLKACLPLTFCIHTGL [Y12A] | 3.25
20 | AGGFQQRQGLKTCLPLTFCIHTGL [Y12T] | 2.2
21 | AGGFQQRQGLKECLPLTFCIHTGL [Y12E] | 2.29

Variants of: B2
Assay: as above
Conditions: c terminus: a fixed tail appended

Row | Variant | protein stability index
22 | AVPTSEARAFAEKNGLSFIETSAL [D5S] | 2.19
23 | AVPTIEARAFAEKNGLSFIETSAL [D5I] | 2.04
24 | AVPTPEARAFAEKNGLSFIETSAL [D5P] | 2.23
25 | AVPTDEARAFAEKNGLSFIETSRL [A23R] | 2.04
26 | AVPTDEARAFAEKNGLSFIETSYL [A23Y] | 1.81
27 | AVPTDEARAFAEKNGLSFIETSNL [A23N] | 2.87
28 | AVPTDEARAFAEKNGWSFIETSAL [L16W] | 2.6
29 | AVPTDEARAFAEKNGASFIETSAL [L16A] | 4.51
30 | AVPTDEARAFAEKNGISFIETSAL [L16I] | 3.85
31 | AVITDEARAFAEKNGLSFIETSAL [P3I] | 2.36
32 | AVSTDEARAFAEKNGLSFIETSAL [P3S] | 2.57
33 | AVPTDEARAFAEKNGLSFIETVAL [S22V] | 2.64
34 | AVPTDEARAFAEKNGLSFIETHAL [S22H] | 2.22
35 | AVPTDEARAFAEKNGLSFIETIAL [S22I] | 1.76
36 | AVPTDEARAFAEKNGLSFIETMAL [S22M] | 1.95
37 | AVPTDEARAFAEKNGLSFIEFSAL [T21F] | 2.37
38 | AVPTDEARAFAEKNGLSFIEHSAL [T21H] | 2.67
39 | AVPTDEARAFAEKNGLSFIERSAL [T21R] | 2.5
40 | AVPTDEARAFAEKNGLSFISTSAL [E20S] | 3.01
41 | AVPTDEARAFAEKNGLSFIITSAL [E20I] | 1.8
42 | AVPTDEARAFAEKNGLSFIVTSAL [E20V] | 1.86
43 | AVPTDEARAFAEKNGLSFIQTSAL [E20Q] | 2.34
44 | AKPTDEARAFAEKNGLSFIETSAL [V2K] | 2.11
45 | AYPTDEARAFAEKNGLSFIETSAL [V2Y] | 2.49
46 | AHPTDEARAFAEKNGLSFIETSAL [V2H] | 2.46

Row | Variant | protein stability index
47 | ACPTDEARAFAEKNGLSFIETSAL [V2C] | 2.15
48 | ATPTDEARAFAEKNGLSFIETSAL [V2T] | 2.47
49 | AMPTDEARAFAEKNGLSFIETSAL [V2M] | 2.67
50 | AVPTDIARAFAEKNGLSFIETSAL [E6I] | 1.73
51 | AVPTDEATAFAEKNGLSFIETSAL [R8T] | 2.84
52 | AVPTDEASAFAEKNGLSFIETSAL [R8S] | 2.68
53 | AVPTDEAGAFAEKNGLSFIETSAL [R8G] | 2.63
54 | AVPTDEAKAFAEKNGLSFIETSAL [R8K] | 2.61
55 | SVPTDEARAFAEKNGLSFIETSAL [A1S] | 2.56
56 | NVPTDEARAFAEKNGLSFIETSAL [A1N] | 2.4
57 | FVPTDEARAFAEKNGLSFIETSAL [A1F] | 3.39
58 | HVPTDEARAFAEKNGLSFIETSAL [A1H] | 2.63
59 | VVPTDEARAFAEKNGLSFIETSAL [A1V] | 2.49
60 | LVPTDEARAFAEKNGLSFIETSAL [A1L] | 2.28
61 | AVPTDEARAFADKNGLSFIETSAL [E12D] | 2.54
62 | AVPTDEARAFACKNGLSFIETSAL [E12C] | 2.85
63 | AVPTDEARAFAWKNGLSFIETSAL [E12W] | 2.08
64 | AVPTDEARAFASKNGLSFIETSAL [E12S] | 2.01
65 | AVPTDEARAFAFKNGLSFIETSAL [E12F] | 1.69
66 | AVPTDEARAFAEKNGLSHIETSAL [F18H] | 4.72
67 | AVPTDEARAFAEKNALSFIETSAL [G15A] | 2.08
68 | AVPTDEARAFAEKNLLSFIETSAL [G15L] | 1.67
69 | AVPTDEARAFAEKNVLSFIETSAL [G15V] | 2.64
70 | AVPTDEARAFAEKNQLSFIETSAL [G15Q] | 2.58
71 | AVPTDEARAFAEKNHLSFIETSAL [G15H] | 2.15

Row | Variant | protein stability index
72 | AVPTDEARAFAEKNMLSFIETSAL [G15M] | 2.02
73 | AVPTDEARATAEKNGLSFIETSAL [F10T] | 2.91
74 | AVPTDEARAPAEKNGLSFIETSAL [F10P] | 2.31
75 | AVPTDEARAEAEKNGLSFIETSAL [F10E] | 3.81
76 | AVPTDEARAGAEKNGLSFIETSAL [F10G] | 2.24
77 | AVPTDEARAMAEKNGLSFIETSAL [F10M] | 2.27
78 | AVPTDEERAFAEKNGLSFIETSAL [A7E] | 3.29
79 | AVPTDEPRAFAEKNGLSFIETSAL [A7P] | 2.04
80 | AVPTDEMRAFAEKNGLSFIETSAL [A7M] | 2.05
81 | AVPTDEKRAFAEKNGLSFIETSAL [A7K] | 2.19
82 | AVPTDEARAFAEKEGLSFIETSAL [N14E] | 3.54
83 | AVPTDEARAFAEKTGLSFIETSAL [N14T] | 2.39
84 | AVPTDEARAFAEKNGLSFIETSAP [L24P] | 4.62
85 | AVPTDEARAFAEKNGLSFIETSAC [L24C] | 3.07
86 | AVPTDEARAFAEKNGLEFIETSAL [S17E] | 4.3
87 | AVPTDEARAFAEKNGLVFIETSAL [S17V] | 2.79
88 | AVPTDEARAFAEKNGLSFYETSAL [I19Y] | 3.81
89 | AVPTDEARAFAEKNGLSFAETSAL [I19A] | 4.39
90 | AVPTDEARAFQEKNGLSFIETSAL [A11Q] | 2.21
91 | AVPTDEARAFAEYNGLSFIETSAL [K13Y] | 2.49
92 | AVPTDEARAFAEQNGLSFIETSAL [K13Q] | 2.67
93 | AVPTDEARQFAEKNGLSFIETSAL [A9Q] | 2.62
94 | AVPTDEARWFAEKNGLSFIETSAL [A9W] | 2.27
